Test results taken from patent US20260234660A1, “TREATMENT OF MUSCLE RELATED DISORDERS WITH ANTI-HUMAN CACNG1 ANTIBODIES” (Regeneron Pharmaceuticals, Inc., priority 2023, published 2026).

B1: H2aM31944N: anti-hCACNG1 antibody, HCVR/LCVR SEQ ID NOs: 82/90 (antibody, V domains shown)
VH: QVQLVESGGGVVQPGRSLRLSCEASGITFRNYGMHWVRQAPGKGLEWVAVMWYDGSNKYYADSVKGRFTISRDNSKNTVYLQMNSLRAEDTAVYYCARRGHIATAAPFDYWGQGTLVTVSS
VL: DIQMTQSPSSLSASVGDRVTISCRASQSISSYLNWYQQKPGKAPKVLMYAASSLQSGVPSRFSGSGSGTDFTLTISSLQPEDFATYYCQQSYSTPPITFGQGTRLEIK
B2: H2aM31941N: anti-hCACNG1 antibody, HCVR/LCVR SEQ ID NOs: 114/122 (antibody, V domains shown)
VH: QVQLVQSGAEVKKPGASVKVSCKASGYAFTTYGITWVRQAPGQGLEWMGWISAYNGNTNYAEKVQGRFTMTTDTSTNTAYMELRSLRSDDTAVYFCARKGHYGSGTYYNPFGFDFWGQGTMVTVSS
VL: EIMLMQSPGTLSLSPGERATLSCRASQSVSSSYLAWYQQKPGQAPRLLIYGASSRATDIPDRFSGSGSGTDFTLTISRLEPEDFAVYFCQQYYGSPWTFGQGTKVEIK
B3: REGN10713: anti-hCACNG1 antibody, HCVR/LCVR SEQ ID NOs: 162/170, wildtype hIgG1 (antibody, V domains shown)
VH: EVQLVESGGNLVQPGGSLRLSCAASGFTFTSHAMNWVRQAPGKGLEWVSVITGRGFDTHYADSVKGRFTISRDISKNTLYLQMNSLRAEDTAVYYCAKGLYDSGNYYIDYWGQGTLVTVSS
VL: QSVLTQPPSVSAAPGQKVTISCSGSSSNIGNNYVSWYQQLPGTAPKLLIYDNNKRPSGIPDRFSGSKSGTSATLGITGLQTGDEADYYCGTWDLSLSFNWVFGGGTKLTVL
modifications: hIgG1
B4: REGN7660: anti-hCACNG1 antibody, HCVR/LCVR SEQ ID NOs: 130/138 (antibody, V domains shown)
VH: EVQLVESGGGLVQPGGSLKLSCTASGLTLSDSAMHWVRQASGKGLEWVGRIRNKANRYATEYAASVKGRFTISRDDSKNTAYLQMNSLKTEDTAVYYCTRNWKIFLFDYWGQGTLVTVSS
VL: EIVLTQSPGTLTLSPGERATLSCRASQSVGSKYLAWFQQKRGQAPRLLIYGASSRTSGIPDRISGSGSGTDFTLTISRLEPEDFAVYYCQQYGSSPWTFGQGTKVEIK
B5: REGN9909: anti-hCACNG1 antibody, HCVR/LCVR SEQ ID NOs: 146/154 (antibody, V domains shown)
VH: EVQLLESGGGLVQPGGSLRLSCAASGFTFNNYGMSWVRQGPGKGLEWVSSISGSGGTTFYADSVKGRFTISRDNSKNTLYLQMNSLRAEDTAVYYCGKGGYCSSSGCRHYGMDVWGQGTTVTVSS
VL: QSVLTQPPSASGTPGQRVTISCSGSSSNIGNNYIYWYQRLPGTTPKLLIYRNNQRPSGVPDRFSGSKSGTSASLAISGLRSEDEADYYCAAWDDTLSGYVFGTGTKVTVL
B6: REGN10715: anti-hCACNG1 antibody, HCVR/LCVR SEQ ID NOs: 18/26, wildtype hIgG1 (antibody, V domains shown)
VH: QVQLQQWGAGLLKPSATLSRTCAVYGGSFSGYYWNWIRQSPGKGLEWIGEILHSGRTNYNPSLKSRVTISVDTSKNQFSLKLTSVTAADTAVYYCAGRIAARHGWFDPWGQGTLVTVSS
VL: DIQMTQSPSSVSTSVGDRVTISCRASQDIRKWLAWYQQKPGKAPKLLIYATSSLQSGVPSRFSGSGSGTDFTLTISSLQPEDFATYFCQQANSFPFTFGQGTKLEIK
modifications: hIgG1
B7: REGN10717: anti-hCACNG1 antibody, HCVR/LCVR SEQ ID NOs: 34/42, wildtype hIgG1 (antibody, V domains shown)
VH: QVQLVESGGGVVQPGRSLRLSCAASGFTFSTYGMHWVRQAPGKGLEWVAVIWHDGSDKYYVDSVKGRFSIARDNSKNTLYLQMNSLRVEDTGIYYCARRGIRGTVFDHWGLGTLVTVSS
VL: DIQMTQSPSTLSASVGDRVTLTCRASQSISNKLAWYQQKPGKAPNLLIYKASNLESGVPSRFSGSGSGTEFTLTISSLQPDDFATYYCQQYNSYSWTFGQGTKVEIK
modifications: hIgG1
B8: REGN10716: anti-hCACNG1 antibody, HCVR/LCVR SEQ ID NOs: 50/58, wildtype hIgG1 (antibody, V domains shown)
VH: QVQLQESGPGLVKPSETLSLTCTVSGDSINNYYWTWLRQPPGKGLEWIGYIYYSGSANYNPSLKSRVTISVDTSKNQFSLKLNSVTAADTAVYYCARGAVKYFRHWGQGTLVTVSS
VL: EIVLTQSPGTLSLSPGERATLSCRASQTINHNNLAWYQQRPGQAPRLLIYGASNRATAIPDRFSGSGSGTDFTLTISRLEPEDFEVYSCQQYGSLPLTFGGGTKVEIK
modifications: hIgG1

system: human myotubes; experiment: Acetylcholine-induced calcium flux assay in human myotubes (FLIPR); format: cell-based; conditions: antibody 0.01 μM to 1 μM, 1 hour incubation, 20 uM acetylcholine
Description: CACNG1 is the γ1 subunit of the skeletal muscle specific L-type calcium channel, (dihydropyridine receptor), though genetic deletion of CACNG1 appears to have no major impact on skeletal muscle function. To determine whether antibodies that bind CACNG1 impact muscle function, a calcium flux assay was performed on human myotubes that were incubated with CACNG1 antibodies to determine whether these antibodies affect acetylcholine-induced calcium release.
Human skeletal myoblasts (Cook Myosite, Inc.) were plated at 10,000 cells/well of a 96-well plate and were differentiated for 7 days into myotubes. On the final day of differentiation, media was replaced with 50 μL of FLIPR calcium 5 dye with probenecid (Invitrogen) and 50 uL of assay buffer (0.1% BSA-DMEM) per well. CACNG1 and isotype control antibodies were serial diluted in assay buffer and added to the cells and incubated at 37° C. in a 5% CO2 incubator for 1 hour prior to the calcium flux assay. Nicardipine hydrochloride (Sigma) was added to untreated wells to serve as a control for calcium channel blockade. After 1 hour, acetylcholine (Sigma) was added at a 20 uM final concentration to induce myotube calcium release, and plates were assayed on a FLIPR Tetra (Molecular Devices, LLC).

Row | Molecule | effect on acetylcholine-induced calcium flux
1 | B1 | do not inhibit acetylcholine-induced calcium flux

system: wildtype or CACNG1 knockout myofibers; experiment: Antibody binding to single myofibers ex vivo; format: cell-based, mouse; conditions: 100 nM antibody, 30 minutes
Description: (§1) Following confirmation of CACNG1 antibody binding to human myotubes, a subset of antibodies was tested for binding to fully mature myofibers ex vivo. Single myofibers were isolated from either wildtype mice, mice that were homozygous for the deletion of CACNG1 (referred to as CACNG1 knockout mice), or mice that were homozygous for the expression of human CACNG1 in place of mouse CACNG1 (referred to as CACNG1^Hu/Hu). The gastrocnemius muscle was removed, collagenase digested, and single myofibers were isolated, washed, and incubated overnight at 37° C. at 5% C02, in DMEM+10% horse serum. Following overnight incubation, single myofibers were incubated with 100 nM of each CACNG1 antibody or an isotype control antibody for 30 minutes. Myofibers were then washed twice in DMEM+10% horse serum, and subsequently incubated with 10 ug/mL of fluorescent-conjugated secondary antibodies for 30 minutes, washed twice in DMEM+10% horse serum, and then fixed with 4% paraformaldehyde (PFA) for 15 minutes at room temperature. Single fibers were then washed twice with PBS, stained with Hoechst for 5 minutes, washed once more with PBS, then transferred to microscope slides, coverslipped, and imaged using a Zeiss LSM 710 confocal microscope.

Row | Molecule | binding to wildtype or CACNG1 knockout myofibers
2 | B2 | did not bind to wildtype or CACNG1 knockout myofibers

system: CACNG1^Hu/Hu myofibers; experiment: Antibody binding to single myofibers ex vivo; format: cell-based, mouse; conditions: 100 nM antibody, 30 minutes
Description: as §1

Row | Molecule | binding to CACNG1^Hu/Hu myofibers ex vivo
3 | B2 | demonstrated binding to CACNG1^Hu/Hu myofibers ex vivo

target: T1, human CACNG1 nanodisc (Homo sapiens, UniProt Q06432); experiment: Biacore binding kinetics of anti-CACNG1 monoclonal antibodies to human CACNG1 nanodisc, antigen capture format; conditions: 25° C., 1:1 binding model
T1 construct: made in house
Description: Equilibrium dissociation constants (KD values) for nanodisc embedded human CACNG1 expressed with a C-terminal PADRE-Flag-His tag (human CACNG1 nanodisc) binding to purified anti-hCACNG1 antibodies were determined using a real-time surface plasmon resonance biosensor technology with a Biacore T200 instrument. The CM5 Biacore sensor surface was derivatized by amine coupling with a monoclonal mouse anti-His antibody (Cytiva; Marlborough, MA). All Biacore binding studies were performed in a buffer composed of 0.01M HEPES, 0.15M NaCl, 1 mM CaCl2), 0.5 mM MgCl2, pH 7.4 (HBS-N++ running buffer). Different concentrations of anti-hCACNG1 antibodies (ranging from 300 nM to 12 nM in 5-fold serial dilutions) prepared in HBS-N++ running buffer were injected over the captured human CACNG1 nanodisc at a flow rate of 30 μL/minute. Antibody association was monitored for 2 minutes while dissociation was monitored in HBS-N++ running buffer for 5 minutes. At the end of each cycle, the human CACNG1 nanodisc capture surface was regenerated using three 10 second injections of 10 mM Gly pH1.5. All binding kinetics experiments were performed at 25° C.
The specific SPR-Biacore sensorgrams were obtained by a double referencing procedure. The double referencing was performed by first subtracting the signal of each injection over a reference surface (anti-His) from the signal over the experimental surface (anti-His captured human CACNG1 nanodisc) thereby removing contributions from refractive index changes. In addition, running buffer injections were performed to allow subtraction of the signal changes resulting from the dissociation of captured antibodies from the coupled anti-His surface. Kinetic association (ka) and dissociation (kd) rate constants were determined by fitting the real-time sensorgrams to a 1:1 binding model using Scrubber v2.0c curve fitting software. Binding dissociation equilibrium constants (KD) and dissociative half-lives (t1/2) were calculated from the kinetic rate constants as: […]

T1 sequence (Q06432 whole entry): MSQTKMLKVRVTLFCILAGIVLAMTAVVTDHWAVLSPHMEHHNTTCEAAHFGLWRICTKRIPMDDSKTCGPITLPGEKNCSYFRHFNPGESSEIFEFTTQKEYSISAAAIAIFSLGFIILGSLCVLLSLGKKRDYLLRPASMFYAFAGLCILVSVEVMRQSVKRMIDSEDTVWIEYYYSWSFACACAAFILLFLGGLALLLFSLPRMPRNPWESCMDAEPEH

Row | Molecule | ka | kd
4 | B3 | 74200 M⁻¹ s⁻¹ | 4.72e-05 s⁻¹
5 | B1 | 231000 M⁻¹ s⁻¹ | 0.00395 s⁻¹
6 | B2 | 342000 M⁻¹ s⁻¹ | 0.000406 s⁻¹
7 | B4 | 1.93e+06 M⁻¹ s⁻¹ | 0.0243 s⁻¹
8 | B5 | 331000 M⁻¹ s⁻¹ | 0.00137 s⁻¹
9 | B6 | 152000 M⁻¹ s⁻¹ | 0.000301 s⁻¹
10 | B7 | 294000 M⁻¹ s⁻¹ | 0.0304 s⁻¹
11 | B8 | 730000 M⁻¹ s⁻¹ | 8.36e-05 s⁻¹
